EC50 data for 21 molecules are collected here from US20220073643A1 (NANJING GENSCRIPT BIOTECH, published 2022).

The chains are these.
B1: 260F8A6 (antibody, V domains shown)
VH: QAYLQQSGAELVRSGASVKMSCRASGYTFTSHNMHWVKQTPGQGLEWIGYIYPGNGNTYYNQKFKGKATLTADTSSNTAYMQINSLTSEDSAVYFCVRDYYGNSFVYWGQGTLVTVSA
VL: DVVMTQSPSSLTEKTGEKVSMSCKSSQSLLNSGNQKNYLTWYQQKPGQPPKLLIYWASTRESGVPDRFIGSGSGTDFTLTISSLQTEDLAVYYCQNNYMYPFTFGAGTKLELK
notes: mouse hybridoma mAb
B2: 271B1B6 (antibody, V domains shown)
VH: QAYLQQSGAELVRSGASVKMSCKASGYTFTNYNIHWVKQTPGQGLEWIGYIYPGNGGNYYNQKFKGKATLTADTSSITAYMQISSLTSEDSAVYFCARDYYGNSFAYWGQGTLVTVSA
VL: DIVMTQSPSSLTVTAGEKVTMNCKSSQSLLNSGNQKNYLTWYQQKPGQPPKLLIYWASTRESGVPDRFTGSGSGTDFTLTISSVQAEDLAIYYCQNDYYYPLTFGAGTKLELK
notes: mouse hybridoma mAb
B3: 265E6G2 (antibody, V domains shown)
VH: QAYLQQSGAELVRSGASVKMSCKASGYTFTSYNMHWVKQTPGQGLEWIGYIYPGNGGTNYNQKFKGKATLTADTSSSTAYMQISSLTSEDSAVYFCARDYYGNSFAYWGQGTLVTVSA
VL: DLVMTQSPSSLTVTAGEKVTMSCKSSQSLLNSGNQKNYLTWYQQKPGQPPKLLIYWASTRESGVPDRFTGSGSGTDFTLTISNIQAEDLAVYYCQNDYSYPLPFGAGTKLELR
notes: mouse hybridoma mAb
B4: 279E8B8 (antibody, V domains shown)
VH: QAYLQQSGAELVRSGASVKISCKASGYTFASHNMHWVKQTPGQGLEWIGYIYPGNGGTKYNQKFTGKATLSADTSSSTAYLQISSLTSEDSAVYFCARDYFGNSFVYWGQGTLVTVSA
VL: DIVMTQSPSSLTEKAGEKVSMRCKSSQSLLNSGNQKNYLTWYQQKPGQPPKLLIYWASTRESGVPDRFTGSGSGTDFTLTISSVQADDLAVYYCQNDYMYPFTFGAGTKLELK
notes: mouse hybridoma mAb
B5: 259B4D4 (antibody, V domains shown)
VH: EIQLQQSGPELMKPGASVRISCKASGYSFTSYYMHWMKQSHVKSLEWIGYIDPFNGNTRYNQKFKDKATLTVDKSSTTAYMHLSSLTSEDSAVYFCASLRFFAYWGQGTLVTVSA
VL: DIVMTQSPSSLTVTAGEKVTMSCNSSQSLLNSGNQKNYLTWYQQKPGQPPKLLIYWASSRESGVPDRFTGSGSGTDFTLTISTVQAEDLAVYYCQNDYSFPLTFGAGTRLELK
notes: mouse hybridoma mAb
B6: 292D9C7 (antibody, V domains shown)
VH: QVQLKESGPGLVAPSQSLSITCTVSGFSLTDYGVSWIRQPPGKGLEWLGVIWGGGNAYYNSALKSRLSISKDNSKSQVFLKMNSLRTDDTAMYYCAKNGLLRYLDYWGQGSTLTVSS
VL: DTVMTQSPSSLTVTAGEKVTMSCKSSQSLLNSGNQKNYLTWYQQKPGQPPKLLIYWASTRESGVPDRFTGSGSGRDFTLTISSVQVEDLAIYYCQNDYYYPLTFGAGTKVELK
notes: mouse hybridoma mAb
B7: 392A11C8 (antibody, V domains shown)
VH: DVQLVESGGGLVQPGGSRKLSCAASGFTFSGFGMHWIRQTPEKGLEWVAYISSGSRPIYYADTVKGRFTISRDNPKNTLFLQMTSLRSEDTAMYFCARFYYGNSFDHWGQGTLVTVSA
VL: DIVMTQSPSFLTVTAGEKVTMSCRSSQSLLNSGNQKNYLTWYQQKPGQPPKLLIYWASTRESGVPDRFTGSGSGTDFTLTISSVQAEDLALYYCQNAYSFPLTFGAGTKLELK
notes: mouse hybridoma mAb
B8: 286C7F11 (antibody, V domains shown)
VH: QVQLKESGPGLVAPSQSLSITCTVSGFSLTDYGVSWIRQPPGKGLEWLGVIWNRGNTYYNSALKSRLSISKDNSKSQVFLRMNSLQTDDTAMYYCAKHDFLRFLDYWGQGTTLTVSS
VL: DVVMTQSPSSLTVTAGEKVTMSCKSSQSLLNSGNQKNYLTWYQQKPGQPPKILIYWASTRESGVPDRFTGSGSGTDFSLTITSVQAEDLAVYYCLNDYYYPLTFGAGTKLELK
notes: mouse hybridoma mAb
B9: 275B2G2 (antibody, V domains shown)
VH: EVMLVESGGGLVKPGGSLKLSCAASGFTFRDYTMSWVRQTPEKRLEWVATSIIGGTYTYYPDSVKGRFTISRDNVKNTLYLQMSSLRSEDTAMYYCSRLGRGNAMDYWGQGTSVTVSS
VL: DIVMTQSPSSLTVTAGEKVTMSCKSSQSLLNSGNQKNYLTWYQQKPGQPPKLLIYWASTRESGVPDRFTGSGSGTDFTLTISSVQAEDLAVYYCQNDYSYPFTFGSGTKLEIK
notes: mouse hybridoma mAb
B10: 273F3D4 (antibody, V domains shown)
VH: QVQLKESGPGLVAPSQSLSITCTVSGFALTTYGVSWVRQPPGKGLEWLGVIWGDGSTHYHSALISRLSIRKDNSKSQVFLKLNSLQTDDTATYYCAKPGRGNAMDYWGQGTSVTVSS
VL: DIVMSQSPSSLTVTAGEKVTMSCKSSQSLLNSGNQKNYLTWYQQKPGQSPKLLIYWASTRESGVPDRFTGSGSGTDFTLTISSMQAEDLAVYYCQNDYIYPLTFGAGTMLELK
notes: mouse hybridoma mAb
B11: 406F11G8 (antibody, V domains shown)
VH: DVQLVESGGGLVQPGGSRKLSCAASGFTFSSFGMHWVRQAPEKGLEWVAYISSGSSPIYYADTVKGRFTISRDNSKNTLFLQMTSLRSEDTAMYFCARIYYGNSFAYWGQGTLVTVSA
VL: DIVMTQSPSSLTVTAGEKVAMSCKSSQTLLNSGNQKNYLTWYQQKPGQPPKLLIYWASTRESGVPDRFTGSGSGTDFTLTISSVQAEDLAVYYCQNAYYYPLTFGSGTKLELK
notes: mouse hybridoma mAb
B12: 391F1G2 (antibody, V domains shown)
VH: DVQLVESGGGLVQPGGSRKLSCAASGFTFSSFGMHWVRQAPEKGLEWVAYISSGSSPIYYADTVKGRFTISRDNPKNTLFLQMTSLRSEDTAMYFCARIYYGNSFAYWGQGTLVTVSA
VL: DIVMTQSPSSLTVTAGEKVAMSCKSSQTLLNSGNQKNYLTWYQQKPGQPPKLLLYWASTRESGVPDRFTGSGSGTDFTLTISSVQAEDLAVYYCQNAYYYPLTFGSGTKLELK
notes: mouse hybridoma mAb
B13: 407E11H8 (antibody, V domains shown)
VH: DVQLVESGGGLVQPGGSRKLSCAASGFTFSDFGMHWIRQTPEKGLEWVAYISSGSRPIYYADTVKGRFTISRDNPKNTLFLQMTSLRSEDTAMYFCVRFYFGNSFDHWGQGTLVTVSA
VL: DIVMTQSPSFLTVTAGEKVTMTCRSSQNLLNSGNLKNYLTWYQQKPGQPPKLLISWASTRESGVPDRFTGSGSGTDFTLTISSVQPEDLALYYCQNAYSFPLTFGAGTKLELK
notes: mouse hybridoma mAb
B14: 395B3C11 (antibody, V domains shown)
VH: DVQLVESGGGLVQPGGSRKLSCAASGFTFSGFGMHWIRQTPEKGLEWVAYISSGSRPIYYADTVQGRFTISRDNPKNTLFLQMTSLRSEDTAMYFCARFYYGNSFDHWGQGTLVTVSS
VL: DIVMTQSPSFLTVTAGEKVTMSCKSSQSLLNSGNQKNYLTWYQQKPGQPPKLLIYWASTRESGVPDRFTGSGSGTDFTLTISSVQAEDLALYYCQNAYSFPLTFGAGTKLELK
notes: mouse hybridoma mAb
B15: 409D1A7 (antibody, V domains shown)
VH: DVQLVESGGGLVQPGGSRKLSCAASGFTFSGFGMHWIRQTPEKGLEWVAYISSGSRPIYYADTVKGRFTISRDNPKNTLFLHMTSLRSEDTAMYFCARFYYGNSFDHWGQGTLVTVSA
VL: DIVMTQSPSFLTVTAGEKVTMNCKSSQSLLNSGNQRNYLTWYQQKPGQPPKLLIYWASTRESGVPDRFTGSGSGTDFTLTISSVQAEDLALYYCQNAYSFPLTFGAGTKLELN
notes: mouse hybridoma mAb
B16: 409G10G6 (antibody, V domains shown)
VH: DVQLVESGGGLVQPGGSRKLSCAASGFTFSGFGMHWIRQTPEKGLEWVAYISSDSRPIYYADTVKGRFTISRDNPKNTLFLQMTSLRSEDTAMYFCGRFYYGNSFDHWGQGTLVTVSA
VL: DIVMTQSPSFLTVTAGEKVTLSCRSSQSLLNSGNQRNYLTWYQQKPGQPPKLLIYWASTRESGVPDRFTGSGSGTDFTLTISSVQAEDRALYYCQNAYSFPLTFGTGTKLELR
notes: mouse hybridoma mAb
B17: 394C2G5 (antibody, V domains shown)
VH: DVQLVESGGGLVQPGGSRKLSCAASGFTFSGFGMHWIRQTPEKGLEWVAYVSSGSRPIYYADTVKGRFTISRDNPKNTLFLQMTSLRSEDTAMYFCARFYYGNSFDHWGQGTLVTVSA
VL: DIVMTQSPSFLTVTAGEKVTMSCKSSQSLLNSGNQKNYLTWYQQKPGQPPKLLIYWASTRESGVPDRFTGSGSGTDFTLTINNVQAEDLALYYCQNAYSFPLTFGAGTKLELT
notes: mouse hybridoma mAb
B18: 406E1H7 (antibody, V domains shown)
VH: DVQLVESGGGLVQPGGSRKLSCAASGFTFSGFGMHWIRQTPEKGLEWVAYISSGSRPIYYADTVQGRFTISRDNPKNTLFLQMTSLRSEDTAMYFCARFYYGNSFDHWGQGTLVTVSS
VL: DIVMTQSPSFLTVTAGEKVTMSCKSSQSLLNSGNQKNYLTWYQQKPGQPPKLLIYWASTRESGVPDRFTGSGSGTDFTLTISSVQAEDLALYYCQNAYSFPLTFGAGTKLELK
notes: mouse hybridoma mAb
B19: 407D8G1 (antibody, V domains shown)
VH: DVQLVESGGGLVQPGGSRKLSCAASGFTFSGFGMHWIRQTPEKGLEWVAYISSGSRPIYYADTVQGRFTISRDNPKNTLFLQMTSLRSEDTAMYFCARFYYGNSFDHWGQGTLVTVSS
VL: DIVMTQSPSFLTVTAGEKVTMSCKSSQSLLNSGNQKNYLTWYQQKPGQPPKLLIYWASTRESGVPDRFTGSGSGTDFTLTISSVQAEDLALYYCQNAYSFPLTFGAGTKLELK
notes: mouse hybridoma mAb
B20: 407A8G10 (antibody, V domains shown)
VH: DVQLVESGGGLVQPGGSRKLSCAASGFTFSGFGMHWIRQTPEKGLEWVAYISSGSRPIYYADTVKGRFTISRDNPKNTLFLQMTSLRSEDTAMYFCARFYYGNSFDHWGQGTLVTVSA
VL: DIVMTQSPSFLTVTAGEKVTMSCRSSQSLLNSGNQRNYLTWYQQKPGQPPKLLIYWASTRESGVPDRFTGSGSGTDFALTISSVQAEDLALYYCQNAYSFPLTFGAGTKLELK
notes: mouse hybridoma mAb
B21: 391H11H3 (antibody, V domains shown)
VH: DVQLVESGGGLVQPGGSRKLSCAASGFTFSGFGMHWIRQTPEKGLEWVAYISSGSRPIYYADTVQGRFTISRDNPKNTLFLQMTSLRSEDTAMYFCARFYYGNSFDHWGQGTLVTVSS
VL: DIVMTQSPSFLTVTAGEKVTMSCKSSQSLLNSGNQKNYLTWYQQKPGQPPKLLIYWASTRESGVPDRFTGSGSGTDFTLTISSVQAEDLALYYCQNAYSFPLTFGAGTKLELK
notes: mouse hybridoma mAb

This test addresses T1, human Claudin18.2 (human).
T1 construct: also called CLDN18.2
Kind of test: cell ELISA, Claudin18.2-expressing HEK293T cells. The gist of the method:
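Claudin18.2-expressing HEK293T stable cells (1.5×10⁶ cells/ml in 5% skim milk/PBS blocking buffer) were incubated 1 h at room temperature in plates pre-blocked overnight at 4° C. EC₅₀ was derived by four-parameter curve fit.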
For orientation: An ELISA detects its analyte on a solid surface through an enzyme-linked reagent.
In the case of B1, the response was half-maximal at 1.8 nM (EC50). In other words, the single-digit nanomolar range.
For B2, the EC50 (usually the concentration at which the effect is half-maximal) is about 0.429 nM.
As to B3, the half-maximal effective concentration (EC50) is about 14 nM.
B4 showed an EC50 of about 9.62 nM.
On to B5, for which the concentration for a half-maximal effect (EC50) was about 0.378 nM.
B6: the EC50 came out at 0.875 nM.
Consider B7, for which the EC50 turned out to be 1.21 nM.
In turn, B8 displayed an EC50 of about 0.0831 nM.
The molecule B9 came in with a concentration for a half-maximal effect (EC50) of about 2.06 nM.
In the case of B10, a half-maximal response (EC50) required 1.13 nM. This lies in the single-digit nanomolar range.
In turn, B11 came in with a half-maximal effective concentration (EC50) of 1.83 nM.
As for B12, the EC50 is about 2.66 nM.
In the case of B13, it took 1.24 nM to reach a half-maximal effect (EC50).
As for B14, a half-maximal effect (EC50) was put at 3.58 nM.
B15 returned an EC50 of 2.05 nM.
B16 returned an EC50 of 2.19 nM.
As to B17, the EC50 was found to be 2.81 nM.
Consider B18, for which the EC50 was found to be 4.33 nM.
For B19 the value was 2.38 nM.
In turn, B20 had an EC50 of 2.14 nM.
For B21 the value was 2.97 nM.
